These results are taken from paper doi:10.1101/2022.03.12.484092.

The target of the data set is SARS-CoV-2 nucleocapsid N-terminal domain (NTD) (SARS-CoV-2, UniProt P0DTC9 41-174). In words: fluorescence intensity titration.

As to UCUCUAAACG (ssRNA) [10-mer RNA], the binding result is on record as “binds”.
